Source: the supplement of paper PMC10567573

B1: NP_116010.1 (parent)
chain: HSLRAVSTDPPHHDHHDEFCLMP

What was measured:
[1] = variants of: B1; assay: protein stability index of a GFP-peptide fusion (GPS, HEK-293T) (PSI 1-6); higher = more stable; conditions: c terminus: native
[2] = variants of: B1; assay: as above; conditions: c terminus: native; remark: listed apart in the source

Variant | protein stability index [1] | protein stability index [2]
L21I | 2.56 | 1.68
L21V | 2.66 | 2.53
L21A | 2.83 | 1.67
L21Q | 3.42 | 2.14
L21F | 2.21 | 2.37
P23A | 3.09 | 2.23
H16D | 2.64 | 2.29
H16A | 2.9 | 2.52
H16M | 2.56 | 2.2
H16L | 2.61 | 2.4
H16G | 2.64 | 1.99
H16T | 2.69 | 2.58
H16Q | 2.77 | 2.17
H16Y | 2.58 | 2.61
H16F | 2.65 | 2.67
H16N | 2.81 | 2.06
H16S | 2.54 | 2.61
H16C | 2.66 | 2.44
H16V | 2.98 | 2
H16W | 2.32 | 
H16R | 2.34 | 2.24
H16I | 2.87 | 1.65
H16E | 3.25 | 2.84
H16K | 2.81 | 1.86
D17V | 2.33 | 2.93

Variant | protein stability index [1] | protein stability index [2]
D17Y | 2.17 | 3.33
D17E | 2.66 | 2.59
D17T | 2.42 | 2.33
D17I | 2.57 | 2.8
D17R | 2.16 | 
D17A | 2.44 | 1.76
D17N | 2.4 | 
D17S | 2.31 | 2.78
D17F | 2.21 | 3.35
D17Q | 2.2 | 2
D17L | 2.54 | 2.72
D17W | 2.1 | 3.5
D17H | 2.21 | 
D17G | 2.11 | 1.88
D17M | 2.3 | 4.33
D17K | 2.4 | 
D17C | 2.46 | 2.45
D9S | 2.44 | 3.56
D9M | 2.23 | 2.04
D9E | 2.48 | 1.95
D9W | 2.52 | 1.81
D9F | 2.44 | 3.37
D9G | 2.42 | 3.24
D9N | 2.38 | 1.93
D9V | 2.11 | 1.94

Variant | protein stability index [1] | protein stability index [2]
D9R | 2.2 | 
D9K | 2.44 | 1.84
D9C | 2.45 | 3.11
D9Y | 2.37 | 2.37
E18H | 2.32 | 3.57
E18T | 2.72 | 2.2
E18K | 1.95 | 3.01
E18I | 2.5 | 2.05
E18G | 2.48 | 
E18C | 2.85 | 2.46
E18L | 2.55 | 2.29
E18A | 2.37 | 1.58
E18V | 2.58 | 2.14
E18M | 2.15 | 2.24
E18S | 2.19 | 2.32
E18Q | 2.7 | 1.93
E18Y | 2.22 | 2.08
E18F | 2.12 | 3.33
E18N | 2.44 | 2.84
E18R | 2.35 | 
E18W | 2.61 | 
H13F | 2.24 | 3.29
H13K | 2.33 | 2.31
H13D | 3.07 | 2.18
H13V | 2.33 | 1.99

Variant | protein stability index [1] | protein stability index [2]
H13Y | 2.5 | 2.08
H13N | 2.39 | 1.91
H13A | 2.31 | 2.86
H13S | 2.5 | 2.59
H13I | 2.39 | 2.16
H13T | 2.46 | 2.38
H13W | 2.4 | 1.65
H13R | 2.21 | 
H13M | 2.33 | 3.31
H13G | 2.67 | 1.73
H13Q | 2.59 | 1.89
H13L | 2.73 | 2.11
H13C | 2.58 | 2.89
H13E | 3 | 2.37
F19M | 2.46 | 2.6
F19V | 2.41 | 2.17
F19N | 2.27 | 2.42
F19I | 2.2 | 2.89
F19G | 2.25 | 
F19R | 2.5 | 1.8
F19P | 2.33 | 2.79
F19Q | 2.46 | 2.26
F19Y | 2.54 | 2.33
F19C | 2.12 | 
F19S | 2.47 | 3.38

Variant | protein stability index [1] | protein stability index [2]
F19K | 2.87 | 1.59
F19L | 2.31 | 1.97
F19A | 2.57 | 3.6
F19W | 2.52 | 2.39
F19E | 2.57 | 2.82
F19T | 2.67 | 1.95
D14K | 2.25 | 2.14
D14F | 1.99 | 1.83
D14E | 2.5 | 
D14I | 1.8 | 3.58
D14A | 2.52 | 2.35
D14M | 2.29 | 3.39
D14L | 2.02 | 2.33
D14R | 2 | 2.48
D14Q | 2.45 | 2.61
D14V | 2.27 | 
D14C | 2.5 | 1.99
D14Y | 2.29 | 
D14G | 2.23 | 
D14W | 1.97 | 1.87
D14N | 2.11 | 2.13
D14S | 2.23 | 2.34
